Data: patent publication US20240180969A1 (published 2024)

Target: T1, peptide on HLA-A*11:01 (human)
T1 peptide: VVVGAVGVGK
Assay: activation reporter or marker
Description: Jurkat NFAT-Luciferase effector cells (JNL) cells were transfected on day 1 with TCR or CAR constructs using standard protocols for the Neon™ transfection system (ThermoFisher MPK5000). T2 HLA-A*11 target cells were loaded with peptide […] (SEQ ID NO: 110). Peptides were resuspended in DMSO, and serially-diluted 20 times, 3× per dilution. Serially diluted peptide solutions were added to T2 HLA-A*11 cells resuspended in peptide-loading media (RPMI 1640+1% BSA+1×P/S). This yielded peptide-loaded T2 HLA-A*11 cells at approximately ˜0.67E6/mL, with peptide concentrations ranging from ˜10 fM to 100 μM, including a control at 0 μM. Peptide-loaded T2 HLA-A*11 cells were incubated overnight at 37° C. in 384-well plates, plated at 10,000 cells per well (Corning 3570). On day 2, transfected JNL cells (10,000 cells/well) were added to the peptide-loaded T2 HLA-A*11 cells to a final volume of 30 μL. After a 6-hour incubation at 37° C., the One-Step™ Luciferase assay system (Firefly luciferase, BPS Bioscience, 60690) was used to determine luminescence intensity on a Tecan Infinite® M1000.

B1: Positive Control TCR (TRAV3-3*01/TRBV4*01) (TCR, V domains shown)
Valpha: GEQVEQRPPHLSVREGDSAVITCTYTDPNSYYFFWYKQEPGASLQLLMKVFSSTEINEGQGFTVLLNKKDKRLSLNLTAAHPGDSAAYFCAVSGGTNSAGNKLTFGIGTRVLVRP
Vbeta: ETAVFQTPNYHVTQVGNEVSFNCKQTLGHDTMYWYKQDSKKLLKIMFSYNNKQLIVNETVPRRFSPQSSDKAHLNLRIKSVEPEDSAVYLCASSRDWGPAEQFFGPGTRLTVL
B1: recognises.
